Experimental data from PMC6254361, “The properties of Msh2–Msh6 ATP binding mutants suggest a signal amplification mechanism in DNA mismatch repair” (The Journal of Biological Chemistry, 2018).
One block for each substance: values may come before it.

What was measured:
[1] = tested on: Msh2;Msh6 (Saccharomyces cerevisiae;Saccharomyces cerevisiae); assay: SPR; conditions: SPR on streptavidin surface; buffer, salt, pH and temperature not given in the material; with or without 0.1-2.5 mM ATP; LacI end block, released by 1 mM IPTG
[2] = tested on: Msh2;Msh6(G1142D) (Saccharomyces cerevisiae;Saccharomyces cerevisiae); assay: SPR; conditions: 0.1 and 2.5 mM ATP, LacI; printed as no more than 0.86; SPR on streptavidin surface; buffer, salt, pH and temperature not given in the material; with or without 0.1-2.5 mM ATP; LacI end block, released by 1 mM IPTG
[3] = tested on: Msh2(K694M);Msh6 (Saccharomyces cerevisiae;Saccharomyces cerevisiae); assay: SPR; conditions: ATP up to 2.5 mM, LacI; SPR on streptavidin surface; buffer, salt, pH and temperature not given in the material; with or without 0.1-2.5 mM ATP; LacI end block, released by 1 mM IPTG
[4] = tested on: Msh2;Msh6;Mlh1;Pms1 (Saccharomyces cerevisiae;Saccharomyces cerevisiae;Saccharomyces cerevisiae;Saccharomyces cerevisiae); assay: SPR; conditions: ATP, LacI; SPR on streptavidin surface; buffer, salt, pH and temperature not given in the material; with or without 0.1-2.5 mM ATP; LacI end block, released by 1 mM IPTG
[5] = tested on: Msh2(K694R);Msh6 (Saccharomyces cerevisiae;Saccharomyces cerevisiae); assay: SPR; conditions: ATP up to 2.5 mM, LacI; SPR on streptavidin surface; buffer, salt, pH and temperature not given in the material; with or without 0.1-2.5 mM ATP; LacI end block, released by 1 mM IPTG
[6] = tested on: Msh2(K694A);Msh6 (Saccharomyces cerevisiae;Saccharomyces cerevisiae); assay: SPR; conditions: ATP up to 2.5 mM, LacI; SPR on streptavidin surface; buffer, salt, pH and temperature not given in the material; with or without 0.1-2.5 mM ATP; LacI end block, released by 1 mM IPTG
[7] = molecular target: Walker A Lys mutant Msh2–Msh6 complexes (S. cerevisiae); assay: SPR; Biacore T100; 236-bp GT mispair DNA held by biotin-streptavidin, other end blocked by lacO-LacI; 20 nM Msh2–Msh6, 250 μM ATP, 30 nM LacI for 100 s, then the same plus 40 nM Mlh1–Pms1 for 300 s; recruitment read as the increase in RU over steady-state Msh2–Msh6; 25 mM Tris pH 8, 4 mM MgCl2, 110 mM NaCl, 0.01% Igepal, 2 mM DTT, 2% glycerol; 10 °C, 20 μl/min; conditions: scale: Mlh1–Pms1 complexes bound per Msh2–Msh6 complex
[8] = molecular target: S. cerevisiae Mlh1–Pms1 [S. cerevisiae]; assay: SPR; conditions: GT mispair-containing double end-blocked DNA surface; buffer with ATP and LacI; read off a plot

Substance: 236-bp +T mispair DNA
binding signal (% of WT RUmax) [1]: 100

Substance: 236-bp mispaired DNA, double end-blocked
binding signal (Msh2-Msh6 per DNA) [2]: < 0.86 | binding signal (Msh2-Msh6 per DNA (maximum)) [3]: 1 | binding signal (Mlh1-Pms1 per Msh2-Msh6) [4]: 1.07 | binding signal (Msh2-Msh6 per DNA (maximum)) [5]: 1 | binding signal (Msh2-Msh6 per DNA (maximum)) [6]: 1

Substance: S. cerevisiae Mlh1–Pms1 (from UniProt P38920 1-769; P14242 1-873) (complex)
stoichiometry N [7]: 2.06 to 3.75

Substance: S. cerevisiae Msh2–Msh6 (WT) mutant Msh2:K694A [S. cerevisiae] / S. cerevisiae Mlh1–Pms1 [S. cerevisiae] chain 3 K694A
screen value [8]: 3.5

Substance: S. cerevisiae Msh2–Msh6 (WT) mutant Msh2:K694M [S. cerevisiae] / S. cerevisiae Mlh1–Pms1 [S. cerevisiae] chain 3 K694M
screen value [8]: 4.9

Substance: S. cerevisiae Msh2–Msh6 (WT) mutant Msh2:K694R [S. cerevisiae] / S. cerevisiae Mlh1–Pms1 [S. cerevisiae] chain 3 K694R
screen value [8]: 4.3

Next, values leading:

screen value [8]: 3.3
Substance: S. cerevisiae Msh2–Msh6 (WT) mutant Msh6:K988A [S. cerevisiae] / S. cerevisiae Mlh1–Pms1 [S. cerevisiae] chain 4 K988A

screen value [8]: 3.4
Substance: S. cerevisiae Msh2–Msh6 (WT) mutant Msh6:K988M [S. cerevisiae] / S. cerevisiae Mlh1–Pms1 [S. cerevisiae] chain 4 K988M

screen value [8]: 2.4
Substance: S. cerevisiae Msh2–Msh6 (WT) mutant Msh6:K988R [S. cerevisiae] / S. cerevisiae Mlh1–Pms1 [S. cerevisiae] chain 4 K988R
